B1: TPR t1 (parent)
chain: GACCAAUCUGCCCUCAGAGCUCGAGAACAUCUUCGGAUGCAGAGGAGGCAGGCUUCGGUGGCGCGAUAGCGCCAACGUCCUCAACCUCCAAUGCAUCCCACCACAUGAUGAUGCCUGAAGAGCCUUGGUUUUUUG

Variants of: B1
Experiment: polymerase ribozyme fitness, log enrichment relative to wild type (log ratio); higher = more active; in vitro selection for triplet polymerase activity
Summary of the method: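 Each subunit of a heterodimeric triplet polymerase ribozyme was represented by a PCR-built, transcribed mutant library that underwent triplicate single-round in vitro selection with frozen incubation at −7 °C. Extended constructs were recovered by gel excision, streptavidin-bead capture and RT-PCR, and Illumina sequencing of input and output libraries kept genotypes with ≥10 input reads and ≥1 read per output. Fitness is the logarithm of genotype enrichment relative to wild-type enrichment, from inverse-variance-weighted replicate averages, with a logarithm base of 2.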
With GACCAAUGUGCCCUCAGAGCUCGAGAACAUCUUCGGAUGCAUAGGAGGCAGGCUUCGCUGGCGCGAUAGCGCCAACGUCCUCAACCUCCAAUGCAUCCCACCACAUGAUGAUGCCUGAAGAGCCUUGGUUUUUUG [C8G G42U G58C] the “polymerase ribozyme fitness (log ratio)” value was -0.604.
In the case of GACCAAUGUGCCCUCAGAGCUCGAGAACAUCUUCGGAUGCAUAGAAGGCAGGCUUUGGUGGCGCGAUAGCGCCAACGUCCUCAACCUCCAAUGCAUCCCACCACAUGAUGAUGCCUGAAGAGCCUUGGUUUUUUG [C8G G42U G45A C56U], the “polymerase ribozyme fitness (log ratio)” value is reported as -0.791.
For GACCAAUGUGCCCUCAGAGCUCGAGAACAUCUUCGGAUGCAGAGAAGGCAGGCUUUGGUGGCGCGAUAGCGCCAACGUCCUCAACCUCCAAUGAAUCCCAACACAUGAUGAUGCCUGAAGAGCCUUGGUUUUUUG [C8G G45A C56U C94A C101A], the “polymerase ribozyme fitness (log ratio)” value was -1.64.
In the case of GACCAAUGUGCCCUCAGAGCUCGAGAACAUCUUCGGAUGCAUAGGAGGCAGGCUUCGGUCGCGCGAUAGCGCCAACGUCCACAACCUCCAAUGCAUCCCACCACAUGAUGAUGCCUGAAGAGCCUUGGGUUUUUG [C8G G42U G60C U81A U129G], the “polymerase ribozyme fitness (log ratio)” value is reported as -6.22.
With GACCAAUGUGCCCUCAGAGCUCGAGAACAUCUUCGGAUGCAAAGGAGGCAGGAUUCGGUGGCACGAUAGCGCCAACGUCCCAAACUUCCAAUGCAUCCGACCACAUGAUGAUGCCUGUAGAGCCUUGGUUUUUUG [C8G G42A C53A G63A U81C C82A C86U C99G A118U] the “polymerase ribozyme fitness (log ratio)” value was -7.86.
With GACCAAUGUGCCCUCAGAGCUCGAGAACAUCUUCGAAUGCAGAGGAGGCAGGCUUCGGUGGCGCGAUAGCGCCAACGUCCUCAACCUCCAAUGCAUCCCACCACAUGAUGAUGCCUGAAGAGCCUUGGUUUUUUG [C8G G36A] the “polymerase ribozyme fitness (log ratio)” value was -0.023.
For GACCAAUGUGCCCUCAGAGCUCGAGAACAUCUUCGUAUGCAGAGGAGGCAGGCUUCGGUGGCGCGAUAGCGCCAACGUCCUCAACCUCCAAUGCAUCCCACCACAUGAUGAUGCCUGAGGAGCCUUGGUUUUGUG [C8G G36U A119G U133G], the “polymerase ribozyme fitness (log ratio)” value was 0.386.
For GACCAAUGUGCCCUCAGAGCUCGAGAACAUCUUCGGAUUCAGAGGAGGCAGGCUUCGGUGGCGCGAUAGCGCCAACGUCCUCAACCUCCAAUGCAUCCCACCACAUGAUGAUGCCUGAAGAGCCUUGGUUUUUUG [C8G G39U], the “polymerase ribozyme fitness (log ratio)” value was 0.57.
In the case of GACCAAUGUGCCCUCAGAGCUCGAGAACAUCUUCGGAUACAGAGGAGGCAGGCUUCGGUGGCGCGAUAGCGCCAACGUACUAAAACUCCAAUGCAUCCCACCACAUGAUGAUGUCUGAAGAGCCUUGGUUUUUUG [C8G G39A C79A C82A C85A C114U], the “polymerase ribozyme fitness (log ratio)” value is reported as -4.81.
For GACCAAUGUGCCCUCAGAGCUCGAGAACAUCUUCGGAUACAGCGGAGGCAGGCUUCGGUGGCGUGAUAGCGCCAACGUCCUCAACCUCCAAUGCAUCCCACCACAUGAUGAUGCCUGAAGAGCCUUGGUUUUUUG [C8G G39A A43C C64U], the “polymerase ribozyme fitness (log ratio)” value was -2.65.
In the case of GACCAAUGUGCCCUCAGAGCUCGAGAACAUCUUCGUAUGCAGAGGAGGCAGGCUUCGGUGGCGCGAUAGUGCCAACGUCCUCAACCUCCAAUGCAUCCCACCACAUGAUGAUGCCUGAAGAGCCUUGGUUUUUUG [C8G G36U C70U], the “polymerase ribozyme fitness (log ratio)” value is reported as 0.358.
With GACCAAUGUGCCCUCAGAGCUCGAGAACAUCUUCUGAUGCAGAGGAGGCAGGCUUCGGUGGCGCGAUAGCGCCAACGUCCUCAACCUCCAAUGCAUCCCACCACAUGAUGAUGCCUGAAGAGCCUUGGUUUUUUG [C8G G35U] the “polymerase ribozyme fitness (log ratio)” value was -3.78.
For GACCAAUGUGCCCUCAGAGCUCGAGAACAUCUUCGGAUGCAGAGAAGGCAGGCUUCGGUGGCGCGAUAGCGCCAACGUCCUCAGCCUCUAAUGCAUCCCACCACAUGAUGAUGCCUAAAGAGCCUUGGUUUUUUG [C8G G45A A84G C89U G117A], the “polymerase ribozyme fitness (log ratio)” value was -2.7.
With GACCAAUGUGCCCUCAGAGCUCGAGAACAUCUUCGGAUGCAAAGGAGGCAGGCUUCGGUGGCACGAUAGCGCCAACGUCCUCAACCUCCAAUGCAUCCCACCACAUGAUGAUGCCUGAAGAGCCUUGGUUUUUUG [C8G G42A G63A] the “polymerase ribozyme fitness (log ratio)” value was -2.89.
With GACCAAUGUGCCCUCAGAGCUCGAGAACAUCUUCGGAUACAGAGGAGGCAGGCUUCGGUGGCGCGAUAGCGCAAACGUCCUCAACCUCCAAUGCAUACCACCACAUGAUGAUGCCUGAAGAGCCUUGGUUUUUUG [C8G G39A C73A C97A] the “polymerase ribozyme fitness (log ratio)” value was -5.92.
For GACCAAUGUGCCCUCAGAGCUCGAGAACAUCUUCGGAUGCAGAUGAGGCAGGCUUCGGUGACGCGAUAGCGCCAACGACCUGAACCUCCAAUGCAUCCCACCACAUGAUGAUGCAUGAAGAGCCUUGGUAUUUUG [C8G G44U G61A U78A C82G C115A U130A], the “polymerase ribozyme fitness (log ratio)” value was 0.635.
In the case of GACCAAUGUGCCCUCAGAGCUCGAGAACAUCUUCGGAUGCAGAGAAGACAGGCUUCAGUGUCGCGAUAGCGCCAACGUCCUCAACCUCCAAGGCAUCCCACCACAUGAUGAGGCCUGAAGAGCCUUGGUUUUUUG [C8G G45A G48A G57A G61U U92G U112G], the “polymerase ribozyme fitness (log ratio)” value is reported as -6.23.
With GACCAAUGUGCCCUCAGAGCUCGAGAACAUCUUCGCAUGCAGAGGAGGCAGGCUUAGGUGGCGCGAUAGUGCCAACGUCCUCAACCUCCAAUGCACCCCACCACAUGAUGAUGCCUGAUGAGCCUUGGUUUUUUG [C8G G36C C56A C70U U96C A119U] the “polymerase ribozyme fitness (log ratio)” value was -5.
With GACCAAUGUGCCCUCAGAGCUCGAGAACAUCUUCGGAUGCACAGGAGGCAGGCUUCGGUGGCGCGAUAGGGCCAACGUCCUCAACCUCCAAUGCAUCCCACCACAUGAUGAUGCCUGAAGAGCCUUGGUUUUUUG [C8G G42C C70G] the “polymerase ribozyme fitness (log ratio)” value was -5.8.
In the case of GACCAAUGUGCCCUCAGAGCUCGAGAACAUCUUCGUAUGCAGAGGAGGGAGGCUUCGGUGGGGCGAUAGCGCCAACGUCCUCAACCUCCAAUGCAUCCCACCACAUGAUGAUGCCUGAAGAGCCUUGGCUUUUUG [C8G G36U C49G C62G U129C], the “polymerase ribozyme fitness (log ratio)” value is reported as -3.6.
In the case of GACCAAUGUGCCCUCAGAGCUCGAGAACAUCUUCGUAUGCAGAGGAAGCAGGCUUCGGUGGCGCGAUAGCGGCAACGUCCUCAACCUCCAAGGCAUCCCACCACAUGAUGAUGCAUGAAGAGCCUUGGUUUUUUG [C8G G36U G47A C72G U92G C115A], the “polymerase ribozyme fitness (log ratio)” value is reported as -6.07.

Reference: the RNAGym collection of RNA variant scans (doi:10.1073/pnas.2313332121)
